The results in this text go back to the nanobody polyreactivity screen of Harvey et al. (2022).

This data set can be described thus: yeast display, Sf9 membrane polyspecificity reagent, FACS + sequencing; frameworks hold sequencing errors. In short, it runs like this: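 In a synthetic yeast display library (Saccharomyces cerevisiae BJ5465), nanobody expression was induced with galactose for 36–48 hours. FACS gates were set low and high (top ~1%) using anti-HA fluorescence for expression and streptavidin fluorescence for binding of the Sf9 membrane reagent. Each polyreactivity label is drawn from the gate of origin.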
Regarding “QVQLVESGGGLVQAGGSLRLSCAASGSTFDNYAMGWYRQAPGKERELVATITSGGSITNYADSVKGRFTISRDNAKNTVYLQMYSLKPEDTAVYYCAKRRYFYYRGDYWGQGTQVTVSS”, the “polyreactivity (PSR sort gate)” value is reported as “high polyreactivity”. To “QVQLVESGGGLVQAGGSLRLSCAASGSTFDPNALGWYRQAPGKERELVAAISYTGGRTYYADSVKGRFTISRDNAKNTVYLQMNSLKPEDTAVYYCAVLVVGSTTQDEPYFSGVEHDYWGQGTQVTVSS” belongs “low polyreactivity”; to “QVQLVESGGGLVQAGGSLRLSCAASGSTFDPNAMGWYRQAPGKERELVAAITSGGSTYYADSVKGRFTISRDNAKNTVYLQMNSLKPEDTAVYYCNAPLEWGVYAAQNWDDGYWGQGTQVTVSS”, “low polyreactivity”. The value for “QVQLVESGGGLVQAGGSLRLSCAASGSTFDPNAMGWYRQARGKERELVAAISYTGGRTYYADSVKGRFTISRDNAKNTVYLQMNSLKPEDTAVYYCAVLVVGSTTQDEPYFSGVEHDYWGQGTQVTVSS” was “low polyreactivity”.

Regarding “QVQLVESGGGLVQAGGSLRLSCAASGSTFDPYAMGWYRQAPGKEREFVAAISGSGGSTYYADSVKGRFTISRDNAKNTVYLQMNSLKPEDTAVYYCAKDSFPWVDDDYWGQGTQVTVSS”, the “polyreactivity (PSR sort gate)” value is given as “low polyreactivity”.

With “QVQLVESGGGLVQAGGSLRLSCAASGSTFDPYAMGWYRQAPGKEREFVADIDSSVGSTFYADSVKGRFTISRDNAKNTVYLQMNSLKPEDTAVYYCAAVYESYYYEYYYWGQGTQVTVSS”, the “polyreactivity (PSR sort gate)” value was “high polyreactivity”. “QVQLVESGGGLVQAGGSLRLSCAASGSTFDPYAMGWYRQAPGKERELVAAITSGGGTKYADSVKGRFTISRDNAKNTVYLQMNSLKPEDTAVYYCAADYFDSSYQPTDSILYEYWGQGTQVTVSS”: the “polyreactivity (PSR sort gate)” value is listed as “low polyreactivity”. For the sequence “QVQLVESGGGLVQAGGSLRLSCAASGSTFDPYGMGWYRQAPGKERELVAAITSSGRTNYADSVKGRFTISRDNAKNTVYLQMNSLKPEDTAVYYCATRKERYFYRGYEYWGQGTQVTVSS”, the “polyreactivity (PSR sort gate)” value is recorded as “low polyreactivity”. To “QVQLVESGGGLVQAGGSLRLSCAASGSTFDQYALGRYRQAPGKERELVADITSSDGSTYYADSVKGRFTISRDIAKNTVYLQMNSLKPEDTAVYYCNADYRYIWTYWGWSIYDYWGQGTQVTVSS” belongs “high polyreactivity”; to “QVQLVESGGGLVQAGGSLRLSCAASGSTFDRNAMGWYRKAPGKERELVAAISKRSGSTYYADSVKGRFTISRDNAKNTVYLQMNSLKPEDTAVYYCAADRISYRGMGSWGQGTQVTVSS”, “high polyreactivity”; to “QVQLVESGGGLVQAGGSLRLSCAASGSTFDRYAMGWYRQAPGKERELVAAISHSGGRTYYADSVKGRFTISRDNAKNTVYLQMNSLKPEDTAVYYCAAKSRSGTEAAYGYWGQGTQVTVSS”, “low polyreactivity”. As for “QVQLVESGGGLVQAGGSLRLSCAASGSTFDRYAMGWYRQAPGKERELVAAISWSAGRTYYADSVKGRFTISRDNAKNTVYLQMNSLKPEDTAVNYCAADQIVSGTYDYYWGQGTQVTVAS”, the “polyreactivity (PSR sort gate)” value is given as “low polyreactivity”. For the sequence “QVQLVESGGGLVQAGGSLRLSCAASGSTFDRYAMGWYRQAPRKERELVAANSWSAGRTDYADSVKGRFTISRDNAKNTVYLQMNSLKPEDTAVYYCAADYWYRTFYGYFGYDYWGQGTQVTVSS”, the “polyreactivity (PSR sort gate)” value is recorded as “low polyreactivity”. Turning to “QVQLVESGGGLVQAGGSLRLSCAASGSTFDSYAMGWYRQAPGKERELVAAITRSDASTYYADSVKGRFTISRDNAKNTVYLQMNSLKPEDTAVYYCDADTSLVYYGGDWEYYYWGQGTQVTVSS”, the “polyreactivity (PSR sort gate)” value was “low polyreactivity”. For “QVQLVESGGGLVQAGGSLRLSCAASGSTFDSYGMGWYRQAPGKERELVASISSRGGSTYYADSVKGRFTLSRDNAKNTVYFQMNSLKPEDTAVYYCAAKGPRRWGSGFDYWGQGTQVTVSS”, the “polyreactivity (PSR sort gate)” value is “low polyreactivity”.

For the sequence “QVQLVESGGGLVQAGGSLRLSCAASGSTFDSYGMGWYRQAPGKERELVGSISSRGGSTYYADSVKGRFTISRDNAKNTVYLQMNSLKPEDTAVYYCAAEWLSWFHGYGMYYWGQGTQVTVSS”, the “polyreactivity (PSR sort gate)” value was “low polyreactivity”. In the case of “QVQLVESGGGLVQAGGSLRLSCAASGSTFDTYAMGWYRPAPRKERELLAAISRSGTSTYYADSVKGRFTISRDNAKNTVYLQMNSLKPEESAVYYCAAYGPRVNGEIGREYYYWGQGTQVTVSS”, the “polyreactivity (PSR sort gate)” value is given as “low polyreactivity”.

As for “QVQLVESGGGLVQAGGSLRLSCAASGSTFDVNAMGWYRQAPGKERELVADITSGGSTNYADSVKGRFTISRDNAKNTVYLQMNSLKREDTAVYYCARDDWFGFIRVQEMDYWGQGTQVTVSS”, the “polyreactivity (PSR sort gate)” value is given as “low polyreactivity”. Consider “QVQLVESGGGLVQAGGSLRLSCAASGSTFDVNAMGWYRQAPGKERELVAVITSGGSTNYADSVKGRFTISRDNAKNTVYLQMNSLKPEDTAVYYCAKDSRTLYDYWGQGTQVTVSS”, for which the “polyreactivity (PSR sort gate)” value is “low polyreactivity”. To “QVQLVESGGGLVQAGGSLRLSCAASGSTFDVYAMGWYRQAPGKERELVAAISFSSGSTYYADSVKGRFTISRDNAKNTVYLQMNSLKPEDTAVYYCAARTYRYPYWGYDYWGQGTQVTVSS” belongs “high polyreactivity”.

Turning to “QVQLVESGGGLVQAGGSLRLSCAASGSTFDVYAMGWYRQAPGKERELVAAISLGTGITYYADSVKGRFTISRDNAKNTVYFQMNSLKPEDTAVYYCAVAIETGYGAYDGYIYYYWGQGTQVTVSS”, the “polyreactivity (PSR sort gate)” value is “high polyreactivity”. Regarding “QVQLVESGGGLVQAGGSLRLSCAASGSTFDVYAMGWYRQAPGKERELVATISWIGGSTYYADSVKGRFTISRDYAKKTVYLQMNSLKPEDTAVYYCAAESSPLEYDYWGQGTQVTVSS”, the “polyreactivity (PSR sort gate)” value is recorded as “low polyreactivity”.

On to “QVQLVESGGGLVQAGGSLRLSCAASGSTFDVYAMGWYRQATGKERELVAVINTSGTRTYYADSVKGRFTISRDNSKNTVYLQMISLKPEDTAVYYCNAGGHLEMNYWGEGTQVTVSS”, for which the “polyreactivity (PSR sort gate)” value is listed as “low polyreactivity”. To “QVQLVESGGGLVQAGGSLRLSCAASGSTFDVYARGGYRQAPGKERELVAAITSGGTTNYADSVKGRFTLSRDNAKNTVYLQMNSLKPEDTAVYYCAKDSRNVYWDYGYWGQGTQVTVSS” belongs “low polyreactivity”.

For “QVQLVESGGGLVQAGGSLRLSCAASGSTFDWYAMGWYRQAPGKERELVAAISSDDSTYYADSVKGRFTISRDNAKNTVYLQMNSLKPEDTAVYYCAVDVYSDYGDYGYWGQGTQVTVSS”, the “polyreactivity (PSR sort gate)” value was “low polyreactivity”.

For “QVQLVESGGGLVQAGGSLRLSCAASGSTFDWYAMGWYRQAPGKERELVAAITSGGSTYYADSVKGRFTISRDNAKNTVYLQMNSLKPEDTAVYYCAAESRQVRYILYYYWGQGTQVTVSS”, the “polyreactivity (PSR sort gate)” value is given as “low polyreactivity”. The value for “QVQLVESGGGLVQAGGSLRLSCAASGSTFDWYVMGWNRQAPGKETELVAAINQGSGSTYYADSVKGRFTISRDNAKNPVYLQMNSLKPEDTAVYYCAADRYGAGYLYWPYDYWGQGTQVTVSS” was “low polyreactivity”; that for “QVQLVESGGGLVQAGGSLRLSCAASGSTFDYNDMGWYRQAPGKERELVASITFSGGTYDADSVKGRFTISRDNAKTTVYLQMNSLTPEDTAVYYCNAVYFFYIDPWNSYPTYDYWGQGTQVTVSS” was “high polyreactivity”. “QVQLVESGGGLVQAGGSLRLSCAASGSTFDYNTMGWYRQAPGKERELVAAINNSGGSTYYADSVKGRFTISRDNAKNTVYLQMNSLKPEDTAVYYCAAVSYRRHFGPYNYWGQGTQVTVSS”: the “polyreactivity (PSR sort gate)” value was “low polyreactivity”. The value for “QVQLVESGGGLVQAGGSLRLSCAASGSTFDYYAMGWYRPAPGKERELVAAISRRGGGTYYADSVKGRFTISRDNAKNTVYLQMNSLKPEDTAVYYCAKAVKYPTKALAVGYWGQGTQVTVSS” was “high polyreactivity”; that for “QVQLVESGGGLVQAGGSLRLSCAASGSTFDYYAMGWYRQAPGKERELVAAISGSGDRTYYADSVKGGFTISRDNAKNTVYLQMNSLKREDTAVYYCAKYGRTRFYYWGQVTQVTVSS” was “high polyreactivity”; that for “QVQLVESGGGLVQAGGSLRLSCAASGSTFDYYAMGWYRQAPGKERELVAAITWSGGTTYYADSVKGRFTISRDNAKNTVYLQMNSLKPEDTAVYYCAAESTLPIIDRDDYWGQGTQVTVSS” was “low polyreactivity”. The value for “QVQLVESGGGLVQAGGSLRLSCAASGSTFDYYAMGWYRQTPGNDRELVAALSWSGGSTYYADSVKGRFTISRDNAKNTVYLQMNSLKPEDTAVYYCATGTYCPRYNYFEGYYWGQGTQVTVSS” was “high polyreactivity”; that for “QVQLVESGGGLVQAGGSLRLSCAASGSTFDYYDMGWYRQAPGKERELVATITSGGSTNYADSVKGRFTISRDNAKNTVYLQMNSLKPEDTAVYDCAADIGGDGEGYDYWGQGTQVTVSS” was “low polyreactivity”; that for “QVQLVESGGGLVQAGGSLRLSCAASGSTFEANAMGWYRQAPGKERELVAVITRTGGSTYYADSVKGRFTISRDNAKNTVYLQMNSLKPVDTAVYYCAADGVVPGRFFWPAHEYDYWGQGTQVTVSS” was “low polyreactivity”. For “QVQLVESGGGLVQAGGSLRLSCAASGSTFEAYAMGWDRQAPGKERELVAAISYSGSSTYYADSVKGRFTISRDNAMNSVYLQMHRLKPEDTALTYCAARASKGRRMGYWGQGTQVTVSS”, the “polyreactivity (PSR sort gate)” value is listed as “low polyreactivity”. Regarding “QVQLVESGGGLVQAGGSLRLSCAASGSTFEAYAMGWYRQAPGKERELVATITGSGGRTYADSVKGRFTITRDNAKNTVYLQMNSLKPEDTAVYYCAADCLKVAEYDYWGQGTQVTVSS”, the “polyreactivity (PSR sort gate)” value was “low polyreactivity”.

As to “QVQLVESGGGLVQAGGSLRLSCAASGSTFEGNDMGWYRQAPGKERELVAAITTGAGTNYADSVKGRFTISRDNAKNTVYLQMNSLKPEDTAVYYCATRVYWYYDPYYSKYTYDYWGQGTQVTVSS”, the “polyreactivity (PSR sort gate)” value is on record as “low polyreactivity”. “QVQLVESGGGLVQAGGSLRLSCAASGSTFEGYAMGWYRQAPGKERELVAVISSGSITKYADSVKGRFTISRDNAKNTVYLQMNSLKQEDTAVYYCAADWTYVRFDYWGQGTQVTVSS”: the “polyreactivity (PSR sort gate)” value is recorded as “low polyreactivity”. To “QVQLVESGGGLVQAGGSLRLSCAASGSTFEIYAMGWYRQAPGKERELVAAIDFSGGSTYYADSVKGRFTISRDNAKKTLYLQMNSLKPEDTAVYYCAVDSASDTIYDYWGQGTQVTVSS” belongs “low polyreactivity”.
